Reference: patent US20200172956A1 (NATIONAL UNIVERSITY CORPORATION KUMAMOTO UNIVERSITY, published 2020)

Molecular target: T1, type IV collagen α3-SmBiT (fusion protein having SmBiT at the C-terminal of wild-type type IV collagen α3(IV) … (Homo sapiens (Human), UniProt Q01955 43-1670))
T1 construct: also called α3 chain; COL4A3 in pFC36K SmBiT vector
Experiment: split luciferase (NanoBiT) luminescence in culture supernatant of HEK293T cells co-expressing the domain-deleted α5 fusion with α3 and α4 chains

T1 sequence (Q01955 other isoform, or with tags, fused parts or gaps): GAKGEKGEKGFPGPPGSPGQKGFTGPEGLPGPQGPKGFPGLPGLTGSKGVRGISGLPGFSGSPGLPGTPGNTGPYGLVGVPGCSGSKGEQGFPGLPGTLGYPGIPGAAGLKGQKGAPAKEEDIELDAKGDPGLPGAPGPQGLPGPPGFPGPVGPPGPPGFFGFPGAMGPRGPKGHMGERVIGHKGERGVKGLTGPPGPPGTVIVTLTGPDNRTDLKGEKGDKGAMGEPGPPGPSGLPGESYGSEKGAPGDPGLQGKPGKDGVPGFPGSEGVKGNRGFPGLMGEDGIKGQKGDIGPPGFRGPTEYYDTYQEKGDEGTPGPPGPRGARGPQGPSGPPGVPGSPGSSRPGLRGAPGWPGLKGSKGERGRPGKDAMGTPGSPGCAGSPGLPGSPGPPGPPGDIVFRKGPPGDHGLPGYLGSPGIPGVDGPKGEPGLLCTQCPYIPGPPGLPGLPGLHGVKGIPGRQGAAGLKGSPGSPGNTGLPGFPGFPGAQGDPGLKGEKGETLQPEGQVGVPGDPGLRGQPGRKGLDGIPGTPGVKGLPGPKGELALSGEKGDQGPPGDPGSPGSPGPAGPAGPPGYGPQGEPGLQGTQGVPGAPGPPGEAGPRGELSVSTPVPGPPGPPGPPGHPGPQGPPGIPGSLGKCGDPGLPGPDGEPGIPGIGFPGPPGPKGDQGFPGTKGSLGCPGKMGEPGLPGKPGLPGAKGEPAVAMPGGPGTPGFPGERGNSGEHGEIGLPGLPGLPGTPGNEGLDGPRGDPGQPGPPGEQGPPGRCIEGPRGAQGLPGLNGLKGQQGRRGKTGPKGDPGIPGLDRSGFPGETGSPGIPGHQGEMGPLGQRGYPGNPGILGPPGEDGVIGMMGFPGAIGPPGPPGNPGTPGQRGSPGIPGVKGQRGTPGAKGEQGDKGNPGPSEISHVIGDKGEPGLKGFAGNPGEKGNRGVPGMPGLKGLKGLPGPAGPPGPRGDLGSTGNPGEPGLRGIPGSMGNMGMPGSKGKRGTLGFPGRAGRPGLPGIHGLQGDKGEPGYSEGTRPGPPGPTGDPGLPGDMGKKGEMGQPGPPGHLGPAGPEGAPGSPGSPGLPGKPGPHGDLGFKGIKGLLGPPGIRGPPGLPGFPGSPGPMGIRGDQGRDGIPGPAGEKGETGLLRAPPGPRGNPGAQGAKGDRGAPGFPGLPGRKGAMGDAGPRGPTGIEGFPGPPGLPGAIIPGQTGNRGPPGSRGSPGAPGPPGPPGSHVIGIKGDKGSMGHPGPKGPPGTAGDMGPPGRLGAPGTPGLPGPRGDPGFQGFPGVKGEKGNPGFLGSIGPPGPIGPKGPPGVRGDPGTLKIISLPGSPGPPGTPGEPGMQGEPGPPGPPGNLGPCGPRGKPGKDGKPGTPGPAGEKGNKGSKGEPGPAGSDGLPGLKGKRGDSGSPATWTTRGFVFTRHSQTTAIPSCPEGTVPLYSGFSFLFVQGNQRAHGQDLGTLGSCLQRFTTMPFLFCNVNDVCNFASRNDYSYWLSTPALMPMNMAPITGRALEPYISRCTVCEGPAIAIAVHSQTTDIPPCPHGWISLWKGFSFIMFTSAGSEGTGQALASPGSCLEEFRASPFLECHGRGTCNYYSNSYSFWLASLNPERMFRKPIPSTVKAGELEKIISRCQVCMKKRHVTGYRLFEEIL

binding result: no binding
B1: fusion protein having a split luciferase fragment at the C terminal of the NC1 domain of wild-type α5 chain (COL domain-deleted α5 chain) (other)
chain: GFLITRHSQTTDAPQCPQGTLQVYEGFSLLYVQGNKRAHGQDLGTAGSCLRRFSTMPFMFCNINNVCNFASRNDYSYWLSTPEPMPMSMQPLKGQSIQPFISRCAVCEAPAVVIAVHSQTIQIPHCPQGWDSLWIGYSFMMHTSAGAEGSGQALASPGSCLEEFRSAPFIECHGRGTCNYYANSYSFWLATVDVSDMFSKPQSETLKAGDLRTRISRCQVCMKRTMVFTLEDFVGDWEQTAAYNLDQVLEQGGVSSLLQNLAVSVTPIQRIVRSGENALKIDIHVIIPYEGLSADQMAQIEEVFKVVYPVDDHHFKVILPYGTLVIDGVTPNMLNYFGRPYEGIAVFDGKKITVTGTLWNGNKIIDERLITPDGSMLFRVTINS
notes: The residue range is converted from nucleotide numbers; also called 4COL (so in the source); probably ΔCOL
